Article PMC9709071
Where “and” joins values, the source holds several entries; their conditions need not be identical. Identical values can stand only once.

What was measured:
[1] = molecular target: Recombinant DR3-Fc (UniProt Q93038); test: ELISA; DR3-Fc immobilised non-specifically on Maxisorp plates (overnight, 4 °C), casein block; TL1A added in 3-fold dilutions, overnight 4 °C; bound TL1A detected with polyclonal rabbit anti-human TL1A-biotin and streptavidin-HRP; concentrations normalised to TL1A trimers; triplicate
[2] = molecular target: DcR3 (TNFRSF6B) (UniProt O95407); test: ELISA; TL1A variants on DcR3; who was immobilised is not told for DcR3; triplicate
[3] = molecular target: DcR3 (UniProt O95407); test: ELISA; receptor (DR3-Fc; DcR3) immobilised on Maxisorp plates, TL1A variant titrated in 3-fold dilutions, overnight 4 °C, detected with anti-human TL1A-biotin and streptavidin-HRP; concentrations normalised to TL1A trimer; triplicate
[4] = molecular target: mouse DR3 (mouse)
[5] = molecular target: Recombinant DR3-Fc (UniProt Q93038); test: ELISA; receptor (DR3-Fc; DcR3) immobilised on Maxisorp plates, TL1A variant titrated in 3-fold dilutions, overnight 4 °C, detected with anti-human TL1A-biotin and streptavidin-HRP; concentrations normalised to TL1A trimer; triplicate
[6] = molecular target: Fc-scTL1A (TL1W14) (human) (UniProt O95150); test: SEC-MALS; Waters BEH SEC column, 25 °C, PBS pH 7.4, 5 µg of sample
[7] = molecular target: HSA-scTL1A (TL1W15) (human) (UniProt O95150); test: ELISA; reversed format: TL1A molecules immobilised, DR3 titrated
[8] = molecular target: Fc-scTL1A (TL1W14) (human) (UniProt O95150); test: as above
Target sequence in this assay (O95150 other isoform, or with tags, fused parts or gaps): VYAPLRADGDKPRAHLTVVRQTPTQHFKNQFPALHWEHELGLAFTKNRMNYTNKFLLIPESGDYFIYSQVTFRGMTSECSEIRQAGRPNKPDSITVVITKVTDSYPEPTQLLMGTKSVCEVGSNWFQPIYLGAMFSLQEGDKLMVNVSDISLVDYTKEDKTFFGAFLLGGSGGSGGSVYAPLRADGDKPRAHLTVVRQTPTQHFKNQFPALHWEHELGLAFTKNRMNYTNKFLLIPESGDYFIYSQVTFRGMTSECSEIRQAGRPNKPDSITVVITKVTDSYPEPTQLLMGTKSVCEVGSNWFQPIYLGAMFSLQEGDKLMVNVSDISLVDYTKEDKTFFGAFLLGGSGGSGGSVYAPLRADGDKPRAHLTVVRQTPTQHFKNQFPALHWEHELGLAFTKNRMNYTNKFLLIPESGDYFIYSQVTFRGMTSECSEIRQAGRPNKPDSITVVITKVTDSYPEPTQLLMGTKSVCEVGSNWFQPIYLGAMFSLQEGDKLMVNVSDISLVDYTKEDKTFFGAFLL

DcR3 (TNFRSF6B), sequence (O95407 30-300): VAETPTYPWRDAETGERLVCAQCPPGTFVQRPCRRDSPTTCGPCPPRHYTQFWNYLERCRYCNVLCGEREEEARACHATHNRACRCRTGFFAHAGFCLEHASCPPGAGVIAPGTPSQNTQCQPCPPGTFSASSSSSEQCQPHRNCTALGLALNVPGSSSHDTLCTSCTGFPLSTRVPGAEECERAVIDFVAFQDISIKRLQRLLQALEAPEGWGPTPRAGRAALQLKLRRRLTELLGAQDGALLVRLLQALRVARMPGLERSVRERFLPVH
DcR3, sequence (O95407 30-300): as above
Recombinant DR3-Fc, sequence (Q93038 25-199): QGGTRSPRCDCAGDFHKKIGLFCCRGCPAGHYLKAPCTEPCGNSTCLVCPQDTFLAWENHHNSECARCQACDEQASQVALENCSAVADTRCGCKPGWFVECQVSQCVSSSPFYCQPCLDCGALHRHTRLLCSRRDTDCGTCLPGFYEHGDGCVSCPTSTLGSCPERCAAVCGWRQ
HSA-scTL1A (TL1W15) (human), sequence (O95150 other isoform, or with tags, fused parts or gaps): as the sequence (O95150 other isoform, or with tags, fused parts or gaps) above

| EC50 [1] [nM] | EC50 [2] [nM] | EC50 [3] [nM] | IFNg in C57BL/6 mice 6 h after Fc-scTL1A (i.p.) with anti-CD3 antibody (i.v.) [4] [pg/mL] | EC50 [5] [nM] | stoichiometry N [6] | EC50 [7] [nM] | EC50 [8] [nM] | Substance |
| --- | --- | --- | --- | --- | --- | --- | --- | --- |
| 17.1 | 176 | 32 | – | – | – | – | – | TL1W95 (Q167A) (from UniProt O95150 1-251) (ligand) |
| 9.7 | 6.5 | – | 750 | 26.2 | 2 and 4 | – | – | Fc-scTL1A (TL1W14) (from UniProt O95150 84-251; O95150 84-251; O95150 84-251) (Fc fusion) |
| 17.7 | 85.5 | 15.5 | – | – | – | – | – | TL1W109 (S187L) (from UniProt O95150 1-251) (ligand) |
| 29.4 | 24.7 | – | – | 29.5 | – | – | – | TL1W38 (L123K) (from UniProt O95150 1-251) (ligand) |
| 16.6 | 69.2 | 12.6 | – | – | – | – | – | TL1W92 (M158Y) (from UniProt O95150 1-251) (ligand) |
| – | – | – | – | – | – | 3.8 | 1.5 | Recombinant DR3-Fc (from UniProt Q93038 25-199) (Fc fusion) |
| 31.4 | 21.2 | – | – | – | – | – | – | TL1W45 (E190F) (from UniProt O95150 1-251) (ligand) |
| 30.2 | 58.5 | 10.6 | – | – | – | – | – | TL1W122 (N207F) (from UniProt O95150 1-251) (ligand) |
| 30 | 89.8 | 16.3 | – | – | – | – | – | TL1W80 (K111A) (from UniProt O95150 1-251) (ligand) |
